# B1: anti-ATP6V1B2 antibody 2E11 (antibody, V domains shown)
# VH: EVQLQQSGAELVKPGASAKMSCRAPGYTFTSYWITWVKQRPGQGLEWIGDIYPGSGSTNYNEKFKTKATLTVDTSSSTAYMQLSSLTSEDSAVYYCAELGTFDYWGQGTTLTVST
# VL: DVVVTQTPLSLPVSLGDQASISCRSSQSLVHSNGNTYLHWYLQKPGQSPKLLIYKVSNRFSGVPDRFSGSGSGTDFTLKISRVEAEDLGVYFCSQSTHVPYTFGGGTKLEIK
# notes: detection was with an anti-mouse secondary antibody
# Experiments:
# [1] = biological target: T1, human ATP6V1B2 on the surface of senescent human cells (IMR-90 lung fibroblasts, IPF lung fibroblasts, A549 … (human, UniProt P21281 1-511)); assay: FACS, non-permeabilized senescent IMR-90 cells, antibody at 10 ug/ml
# T1 construct: whole, on cells; Endogenous protein on cells; also called surface ATP6V1B2; surface protein expressed in senescent human lung fibroblasts
# Protocol: (§1) Control, growing IMR-90 or CCL-206 cells were seeded 24h prior to testing day. On testing day, the medium was aspirated, and cells were gently detached using warm TrypLE Express solution (Thermo Fisher Scientific) followed by the addition of cold FACS buffer (PBS/5% FBS). ATP6V1B2 antibodies were added to the tubes containing the cells and the tubes were incubated for 60-70 minutes at 4C and centrifuged. Antibodies 2G05, 2E11 and 4G06 were tested at 10 ug/ml. Commercial antibodies-LS-B13421 (LS Bio), ab200839 (Abcam), and SC-55544 (Santa Cruz) were used at 20 ug/ml. Two hundred fifty ul of secondary antibody (anti mouse Alexa 647, Jackson 115-605-146 diluted in FACS buffer 1:300) were added and the tubes were incubated for 40 minutes at 4 C. Following incubation, 600 ul FACS buffer supplemented with DAPI (diluted 1:20,000) were added to each tube and the tubes were centrifuged. Cell pellets were resuspended in 200 ul FACS buffer. The samples were analyzed using GUAVA Flow Cytometry analyzer. Data was analyzed using the FCSalyzer 0.9.18-alpha software. Duplicates and dead cells (DAPI positive cells) were excluded.
# [2] = biological target: T2, mouse ATP6V1B2 on the surface of senescent mouse lung fibroblasts (CCL-206) (mouse, UniProt P62814 1-511); assay: FACS, non-permeabilized senescent CCL-206 cells, antibody at 10 ug/ml
# T2 construct: whole, on cells; Endogenous protein on mouse cells
# Protocol: Surface binding was examined in non-permeabilized cells using FACS. FIG. 4A: antibody 2G05.
# as §1
# T2 sequence (P62814 whole entry): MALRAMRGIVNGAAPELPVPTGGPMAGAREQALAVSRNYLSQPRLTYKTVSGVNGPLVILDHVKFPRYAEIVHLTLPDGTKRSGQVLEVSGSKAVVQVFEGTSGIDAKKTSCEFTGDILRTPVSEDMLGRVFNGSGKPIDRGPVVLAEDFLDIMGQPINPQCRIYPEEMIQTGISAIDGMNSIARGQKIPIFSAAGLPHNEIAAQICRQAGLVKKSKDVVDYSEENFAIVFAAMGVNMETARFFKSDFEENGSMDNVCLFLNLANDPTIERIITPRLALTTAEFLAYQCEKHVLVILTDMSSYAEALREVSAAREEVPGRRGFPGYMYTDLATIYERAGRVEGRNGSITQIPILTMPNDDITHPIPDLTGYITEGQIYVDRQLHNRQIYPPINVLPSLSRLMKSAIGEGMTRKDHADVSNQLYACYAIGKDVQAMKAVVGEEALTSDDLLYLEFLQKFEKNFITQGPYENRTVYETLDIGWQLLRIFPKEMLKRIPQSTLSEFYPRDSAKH
# T1 sequence (P21281 whole entry): as the sequence (P62814 whole entry) above, with M25A, A26V, K460R, T464A, Y474F counted along it
binder,measurement,setting,value
B1,binding result,[1],binds
same,binding result,[2],binds
